Test: soluble on expression in E. coli; label from the status in PepcDB or PDB records

Sequence	soluble on expression in E. coli
MSTKEKKTKKPHNVKSSVVPPKKWKTKKKDKKGTGKLRKTASNASLKKHGSTHKIKKPEDITSDGCPLLLTASDTCANIYAEQLSAPNNLSAKTSTPHKSIEAALTPVAFSPPPATQATQAMDAPATTKTAVKPTKWKAEDVAVAYIQKLDPGVIRAEYIEACAATKVNIDKDCQLWKKNLQMNQADNYPILDSTIVKNPAQPDSYVNMSSVIVPHCRYPILMAQMPKRGFEEEFWRAAFNESVVIMYVLMGTEDEKNDFFPTTMGAYVYYGAMFVNIRKVEKMDEERTRYTIEVLPNGFSNSVMMNVYVHTGWEASGVPVRYANTTRSVVDVMNFVKTSSGTEKMLVVSKNGCGRAGFFLSLGAAFCCLNDNSEPRIGEIVKAIRSQRPNAVDSIKQYASIYLCFVYYIKKKITIPEGMQQKFDDLKKGIEAIIREDLSIMY	not soluble
MAGPSWRHIRAEGLDCSYTVLFGKAEADEIFQELEKEVEYFTGALARVQVFGKWHSVPRKQATYGDAGLTYTFSGLTLSPKPWIPVLERIRDHVSGVTGQTFNFVLINRYKDGCDHIGEHRDDERELAPGSPIASVSFGACRDFVFRHKDSRGKSPSRRVAVVRLPLAHGSLLMMNHPTNTHWYHSLPVRKKVLAPRVNLTFRKILLTKKLEHHHHHH	soluble
MCHNGRMESLSLSHHFLIAMPGMGDPLFAKSLVYLCEHGEHGAMGLIINKPSGIAMAQLFDQIDLPLDDEDTRTGLVYFGGPVQPDRGFVLHQPAGNWQSSLMVTDDIALTTSKDVLVAVSEGKKPEQLLISLGYAGWSAGQLEKEIADNGWLTVPAEPSIVFDLPYEERYDAAMALLGFDPSLLSSDVGHALEHHHHHH	soluble
IGNGGAERGTRNTLDIRTVAHREADGSYRIKGEKFYSTGALFAHWVSIKALDDNGKTVMAFIERGTQGLRIVDDWSGFGQRTTASGTVLLDDVSVPAKQVVP	not soluble
MATNKERLFAAGALGPGSGYPGAGFPFAFPGALRGSPPFEMLSPSFRGLGQPDLPKEMASLSVETQSTSSEEMVPSSPSPPPPPRVYKPCFVCNDKSSGYHYGVSSCEGCKGFFRRSIQKNMVYTCHRDKNCIINKVTRNRCQYCRLQKCFEVGMSKEAVRNDRNKKKKEVKEEGSPDSYELSPQLEELITKVSKAHQETFPSLCQLGKYTTNSSADHRVQLDLGLWDKFSELATKCIIKIVEFAKRLPGFTGLSIADQITLLKAACLDILMLRICTRYTPEQDTMTFSDGLTLNRTQMHNAGFGPLTDLVFAFAGQLLPLEMDDTETGLLSAICLICGDRMDLEEPEKVDKLQEPLLEALRLYARRRRPSQPYMFPRMLMKITDLRGISTKGAERAITLKMEIPGPMPPLIREMLENPEMFEDDSSQPGPHPNASSEDEVPGGQGKGGLKSPA	soluble
MESNDSGGVAAKHGFLFQDCVAAYHVTRMLRDKTIRSVRCEVTDDIDIVSDGYIDFVQVKSTGKTRWNISDIVQNSKGADKKTIPCSSILHKSMQCESDLSLGRRYSIVTEEKVNKTLEYLTISPNARLDKPGRQELIDDLNKRTDNFLTDSGISVSDWIDAATWEVFSSLRELELLGIKNIRLASQDLHGVILSSETVAEDIWCRILDTVTRKGEHSRRIHSADDKSYLRPDLLEWFKQRVEDDQSRSGRKIYVKRDLPHILTPFRAPMASVCAKRKGQVLHQQYSLKKYRYKHIADNVCQWLDEVFLRPKEMSDIHKLTFIEKRERLKNSVFKSLHDVSEFLGRVLLHATIRQHHESQPIPCMLYVEKAGAEKILENVHIVRRDPEGDQLWIGFSELVTDINIAVRLPEIRDQLYEDISDCIDTARKKILDIKDDNYLLRHDIDEILDGSQPFDAHLDRFTFVLFVGYDSNLLTEPETPGFEDDLEKETAVLFEKFAADLIEDSPFANLCIHVFIYPAPSLERLTQLVDEKVREVV	soluble
MAKKLSSPKEYKEFIDKFDVFLFDCDGVLWSGSKPIPGVTDTMKLLRSLGKQIIFVSNNSTKSRETYMNKINEHGIAAKLEEIYPSAYSSATYVKKVLKLPADKKVFVLGEAGIEDELDRVGVAHIGGTDPSLRRALASEDVEKIGPDPSVGAVLCGMDMHVTYLKYCMAFQYLQDPNCAFLLTNQDSTFPTNGKFLPGSGAISYPLIFSTGRQPKILGKPYDEMMEAIIANVNFDRKKACFVGDRLNTDIQFAKNSNLGGSLLVLTGVSKEEEILEKDAPVVPDYYVESLAKLAETA	soluble
MGSDKIHHHHHHMKISICGKGGCGKSSITTLLAKEFAKKGHNVLVIDGDESNLSLHKLLGMDLPKDFIEYLGGRKEFMKKLREKMDGKEVELFEGEISIDSLPKEYLVEKDNIKLLAIGKIHDFGEGCACPMGALLREFLKSLKLKDKEVVIVDTEAGIEHFGRGVEGGCDVIIAIIDPTYESIRLSKKIEEIGEKLGKKVYFIVNKVDDETKDLILENVNKDKVIAVIPNNKEIMKCGLMGEELNAELSEIKDVVEILTK	not soluble
MGSDKIHHHHHHDTDKGLARRLPPPVPKDQKNDTDVDIKKRNLLVVLINSNNQILCGDQFVDIKQLKERIKEFIDNPYNDEHKPERVEADVPFFGKMMVTKNHVISLQNDRGTEYQAYIDVQNEIAAAYNELRNKVSKEKFGKNFADLDEEQQKAVQQIYPQKISEAEPKNYGGKK	not soluble
MNEKNIKHSQNFITSKHNIDKIMTNIRLNEHDNIFEIGSGKGHFTLELVQRCNFVTAIEIDHKLCKTTENKLVDHDNFQVLNKDILQFKFPKNQSYKIFGNIPYNISTDIIRKIVFDSIADEIYLIVEYGFAKRLLNTKRSLALFLMAEVDISILSMVPREYFHPKPKVNSSLIRLNRKKSRISHKDKQKYNYFVMKWVNKEYKKIFTKNQFNNSLKHAGIDDLNNISFEQFLSLFNSYKLFNK	soluble
QQFFFENDALGQSSTDFATNFLNLWDNNREQLLNLYSPQSQFSVSVDSTIPPSTVTDSDQTPAFGYYMSSSRNISKVSSEKSIQQRLSIGQESINSIFKTLPKTKHHLQEQPNEYSMETISYPQINGFVITLHGFFEETGKPELESNKKTGKNNYQKNRRYNHGYNSTSNNKLSKKSFDRTWVIVPMNNSVIIASDLLTVRAYSTGAWKTASIAIAQAAGS	soluble
GPGSMGQVGGTATSGRGLTALQVAAALRVTAAARLKQAEAAVSSSQAMHSAHCSIAEQSKAIKPEDCSAVQRLTVPSTDHKGKHVEVRVTEYAPDVFSFLRQLKGVTDPQFADEWSLPENRLKMEMGEGRSQALFLKSKTMLLMCKTISVEEVHALLHVLRAYTLHITAHPSSLLMRFYMLLKVSVRSEEGYILCFNDVFGTASVLHEKWDIKGRVPKNGKHLHYPHLIGSGYEPDPHATKPPPKRHVLANPAIDASQQHPGRESAVVVRGTKDAQGLPTLHDKDLTRLFWVPRTARKRLVEELLRDYDFLKNAGMMDYSLLIGVAYQDDKTRPSDKHCGIESTNVTSSSAVAPASTSAEARPASLAQDSHPSGTRTMLTTVPEFANGVRSFDGQEMYYIGVIDVLTTYTLKKKSANFFKSLLWKQKTLSTIPPDRYAQRIASFTELIFPDVKEEANGG	not soluble
MKKNDLSALQENCFCFCDEEISREAPFQVPIDFPEGFKVDTAEASAAVTWSTDNLSCISEPCLIQTGPEPEDIGVRYAVRVQGTITLLVSVSPVRNQYGQGDGAVSVIHTEEIDQVVYYAAQSGRCPDFSQITVEDLLIVPPFYGSPLTVAGTLVLPPSPDPQSYVFTANTGDSTVSVIDADLNTVVKTIPFSDVPTNLGVTFDKAFTYVLHGNTNLVSVIDNKTLTIINTITVGGGPRKIEFDPTDEFAYVMAAGSIYVINTASQSVIDVIPIPGALDFALDPNGQYVYTANGSSWSVDKYDVNTGQLVESIIDTFEFPSLITTPYAGNFAYVLNGELWPKGVTEISLSPLSRGGDFSRLFETLRTIVFSLDSTRAYFLEPYSEPFLINNLYVVNTARQRIIANVSLPGAFDLAVTPDKQYIYAAQPNDNAVTVYRTSDYTAVTVIPVGAGPSAIAMLEHHHHHH	not soluble
TNRVADLTIYIIRQGVLDRRYLGEIERLYTENKFTNMCLVLNDVSYSGSRGTYGYGYGYGYGNKEYGKQGKKLRRRSAKKTKKFKIGPMKKS	not soluble
MESQLPKFLKEPEKYSRLRLLEALQELYLSIEMLKEGYSRNSASKLFLSWKALLSSIVVTNFGKIMETKKKEGKEDEIKWYMRIGYSAPTTGLIGIARDLENLGFKGLVNLTTAMLGIHRYAYNGLDEDISPFHSRSEAIISIKGLIKAEVEIVGSMKFGDEEKELFEKIKRELNNILEHHHHHH	not soluble

Source: the DeepSol protein solubility set
